Results on one protein are retold here after article PMC3182943, “Monalysin, a Novel ß-Pore-Forming Toxin from the Drosophila Pathogen Pseudomonas entomophila, Contributes to Host Intestinal Damage and Lethality” (PLoS Pathogens, 2011).

The series concerns the molecule itself. The series is described as follows: SEC-MALS; Silica Gel KW804 column (Shodex), 10 mM Tris, 150 mM NaCl, pH 7.5, 0.5 ml/min; MALS/UV/RI with quasi-elastic light scattering; protein loaded at 0.02 mM.

B1: recombinant pro-Monalysin (natural protein)
chain: MTIKEELGQPQSHSIELDEVSKEAASTRAALTSNLSGRFDQYPTKKGDFAIDGYLLDYSSPKQGCWVDGITVYGDIYIGKQNWGTYTRPVFAYLQYVETISIPQNVTTTLSYQLTKGHTRSFETSVNAKYSVGANIDIVNVGSEISTGFTRSESWSTTQSFTDTTEMKGPGTFVIYQVVLVYAHNATSAGRQNANAFAYSKTQAVGSRVDLYYLSAITQRKRVIVPSSNAVTPLDWDTVQRNVLMENYNPGSNSGHFSFDWSAYNDPHRRY
notes: Monalysin (pro-form, pore-forming toxin) of Pseudomonas entomophila L48, ORF PSEEN3174, residues 1 to 271; 30.2 kDa by MALDI-TOF, called the full-length pro-toxin; TRX-His6-TEV fusion from the vector pETG-20A, removed by His-TEV protease; The text mostly calls this protein 'Monalysin' or 'recombinant Monalysin'; upon storage at 4°C it turns partly into the shorter form; Oligomer of about 18 …
For B1, the “stoichiometry N” value is ~18 monomers.
